According to patent US20110124071A1, “METHODS AND COMPOSITIONS FOR PRODUCING HYDROCARBONS” (priority 2009, published 2011):
Read-outs that look alike come from different tables or passages of the source.

What was measured:
[1] = target: T1, PCC7942_orf1594 protein (Synechococcus elongatus, UniProt Q54765); assay: acyl-ACP or acyl-CoA reductase enzyme assay, GC/MS; assay type: biochemical
T1 construct: His-tag (C); made in house; host or cells: E. coli BL21 (DE3)
T1 sequence (Q54765 1-341): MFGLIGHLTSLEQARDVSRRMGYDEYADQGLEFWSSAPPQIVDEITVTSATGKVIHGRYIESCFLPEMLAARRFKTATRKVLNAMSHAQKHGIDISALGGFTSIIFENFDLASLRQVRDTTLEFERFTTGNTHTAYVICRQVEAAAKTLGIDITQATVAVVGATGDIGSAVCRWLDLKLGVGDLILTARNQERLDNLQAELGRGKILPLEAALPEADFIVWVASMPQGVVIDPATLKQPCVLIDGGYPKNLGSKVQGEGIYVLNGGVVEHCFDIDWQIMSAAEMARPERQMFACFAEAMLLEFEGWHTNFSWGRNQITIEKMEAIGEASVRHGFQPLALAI
Protocol: The genomic DNA encoding S. elongatus PCC7492 orf1594 (SEQ ID NO: 66) was cloned into the NcoI and XhoI sites of vector pET-28b under the control of the T7 promoter. The resulting PCC7942_orf1594 protein contained a C-terminal His-tag. An E. coli BL21 strain (DE3) (Invitrogen) was transformed with the plasmid and PCC7942_orf1594 protein was expressed and purified as described in Example 22. The protein solution was stored in the following buffer: 50 mM sodium phosphate, pH 7.5, 100 mM NaCl, 1 mM THP, 10% glycerol. Protein concentration was determined using the Bradford assay (Bio-Rad). 2 mg/ml of PCC7942 orf1594 protein was obtained.
To test PCC7942_orf1594 protein for acyl-ACP or acyl-CoA reductase activity, the following enzyme assays were set-up. 100 μl reactions were set-up in 50 mM Tris-HCl buffer at pH 7.5 with the following components at their respective final concentrations: 10 μM of purified PCC7942_orf1594 protein, 0.01-1 mM acyl-CoA or acyl-ACP, 2 mM MgCl2, 0.2-2 mM NADPH. The reactions were incubated for 1 h at 37° C. and where stopped by adding 100 μl ethyl acetate (containing 5 mg/l 1-octadecene as internal standard). Samples were vortexed for 15 min and centrifuged at max speed for 3 min for phase separation. 80 μl of the top layer were transferred into GC glass vials and analyzed by GC/MS as described in Example 26. The amount of aldehyde formed was calculated based on the internal standard.

[2] = system: E. coli MG1655 ΔfadE lacZ::Ptrc ′tesA-fadD; assay: Heterologous expression in a fatty acyl-CoA-producing E. coli strain, GC-MS; assay type: cell-based; settings: for conversion of fatty aldehydes into alkanes/alkenes: decarbonylase coexpressed with acyl-ACP reductase in acyl-CoA-producing strain
Text: The genomic DNA encoding Acaryochloris marina MBIC11017 AM1—4041 (YP—001518340; putative fatty aldehyde decarbonylase) (SEQ ID NO: 9) was synthesized and cloned into the NdeI and XhoI sites of vector OP-183 (pACYC derivative) under the control of the Ptrc promoter. The resulting construct was cotransformed with OP80-PCC7942—1594 into E. coli MG1655 ΔfadE lacZ::Ptrc ′tesA-fadD. This strain expresses a cytoplasmic version of the E. coli thioesterase, ′TesA, and the E. coli acyl-CoA synthetase, FadD, under the control of the Ptrc promoter, and therefore produces fatty acyl-CoAs. The cells were grown at 37° C. in M9 minimal media supplemented with 100 μg/ml spectinomycin and 100 μg/ml carbenicillin. The cells were cultured and extracted as in Example 3 and analyzed by GC-MS as described in Example 1.
The genomic DNA encoding Synechocystis sp. PCC6803 sll0208 (NP_442147; putative fatty aldehyde decarbonylase) (SEQ ID NO: 3) was synthesized and cloned into the NdeI and XhoI sites of vector OP-183 (pACYC derivative) under the control of the Ptrc promoter. The genomic DNA encoding Synechocystis sp. PCC6803 sll0209 (NP_442146; acyl-ACP reductase) (SEQ ID NO: 68) was synthesized and cloned into the NcoI and EcoRI sites of vector OP-183 (pACYC derivative) under the control of the Ptrc promoter. The resulting constructs were cotransformed with into E. coli MG1655 ΔfadE lacZ::Ptrc ′tesA-fadD. This strain expresses a cytoplasmic version of the E. coli thioesterase, ′TesA, and the E. coli acyl-CoA synthetase, FadD, under the control of the Ptrc promoter, and therefore produces fatty acyl-CoAs. The cells were grown at 37° C. in M9 minimal media supplemented with 100 μg/ml spectinomycin and 100 μg/ml carbenicillin. The cells were cultured and extracted as in Example 3 and analyzed by GC-MS as described in Example 26.

[3] = system: E. coli MG1655 ΔfadD lacZ::Ptrc-′tesA; assay: Heterologous expression in a fatty aldehyde-producing E. coli strain with MSMEG—5739, GC-MS; assay type: cell-based; settings: decarbonylase coexpressed with carboxylic acid reductase MSMEG—5739
[4] = system: E. coli MG1655; assay: Coexpression of putative decarbonylase with S. elongatus PCC7942 orf1594 in E. coli, GC-MS of extracts; assay type: cell-based; settings: coexpressed with S. elongatus PCC7942 orf1594 in E. coli MG1655, M9 minimal media
Protocol: After a 1 μl splitless injection (inlet temperature held at 300° C.) onto the GC/MS column, the oven was held at 100° C. for 3 mins. The temperature was ramped up to 320° C. at a rate of 20° C./min. The oven was held at 320° C. for an additional 5 min. The flow rate of the carrier gas helium was 1.3 ml/min. The MS quadrapole scanned from 50 to 550 m/z. Retention times and fragmentation patterns of product peaks were compared with authentic references to confirm peak identity.
(§1) The genomic DNA encoding Synechococcus elongatus PCC7942 orf1594 (YP—400611; putative aldehyde-generating enzyme) (SEQ ID NO: 65) was amplified and cloned into the NcoI and EcoRI sites of vector OP-80 (pCL1920 derivative) under the control of the Ptrc promoter. The resulting construct (“OP80-PCC7942—1594”) was transformed into E. coli MG1655 and the cells were grown at 37° C. in M9 minimal media with 1% (w/v) glucose as carbon source and supplemented with 100 μg/ml spectinomycin. When the culture reached OD600 of 0.8-1.0, it was induced with 1 mM IPTG and cells were grown for an additional 18-20 h at 37° C. Cells from 0.5 ml of culture were extracted with 0.5 ml of ethyl acetate. After sonication for 60 min, the sample was centrifuged at 15,000 rpm for 5 min. The solvent layer was analyzed by GC-MS as described in Example 1.
The genomic DNA encoding Synechococcus elongatus PCC7942 orf1593 (YP—400610; putative decarbonylase) (SEQ ID NO: 1) was amplified and cloned into the NdeI and XhoI sites of vector OP-183 (pACYC derivative) under the control of the Ptrc promoter. The resulting construct was cotransformed with OP80-PCC7942—1594 into E. coli MG1655 and the cells were grown at 37° C. in M9 minimal media supplemented with 100 μg/ml spectinomycin and 100 μg/ml carbenicillin. The cells were cultured and extracted as in Example 3 and analyzed by GC-MS as described in Example 1. […]

[5] = system: E. coli MG1655; assay: Heterologous expression of putative aldehyde-generating enzyme alone in E. coli, GC-MS of extracts; assay type: cell-based; settings: enzyme expressed alone in E. coli MG1655, M9 minimal media, 37° C.
Protocol: as §1
The genomic DNA encoding Cyanothece sp. ATCC51142 cce—1430 (YP—001802846; putative aldehyde-generating enzyme) (SEQ ID NO: 70) was amplified and cloned into the NcoI and EcoRI sites of vector OP-80 (pCL1920 derivative) under the control of the Ptrc promoter. The resulting construct was transformed into E. coli MG1655 and the cells were grown at 37° C. in M9 minimal media with 1% (w/v) glucose as carbon source and supplemented with 100 μg/ml spectinomycin. The cells were cultured and extracted as in Example 3 and analyzed by GC-MS as described in Example 26.
The genomic DNA encoding P. mariunus CCMP1986 PMM0533 (NP_892651; putative aldehyde-generating enzyme) (SEQ ID NO: 72) and Prochlorococcus mariunus CCMP1986 PMM0532 (NP_892650; putative decarbonylase) (SEQ ID NO: 19) were amplified and cloned into the NcoI and EcoRI sites of vector OP-80 and the NdeI and XhoI sites of vector OP-183, respectively. The resulting constructs were separately transformed and cotransformed into E. coli MG1655 and the cells were grown at 37° C. in M9 minimal media supplemented with 100 μg/ml spectinomycin and 100 μg/ml carbenicillin. The cells were cultured and extracted as in Example 3 and analyzed by GC-MS as described in Example 26.

[6] = in the presence of 2 mM NADPH, read-out: Km for the reduction by PCC7942_orf1594

Molecule: NC(=O)C1=CN([C@@H]2O[C@H](COP(=O)(O)OP(=O)(O)OC[C@H]3O[C@@H](n4cnc5c(N)ncnc54)[C@H](O)[C@@H]3O)[C@@H](O)[C@H]2O)C=CC1 [NADH]
- support of reductase activity as electron donor ([1]; reduction of octadecanoyl-CoA to octadecanal): did not support reductase activity

Molecule: octadecenoyl-CoA
- Km [1, 6]: 82 ± 22 µM

Molecule: NC(=O)C1=CN([C@@H]2O[C@H](COP(=O)(O)OP(=O)(O)OC[C@H]3O[C@@H](n4cnc5c(N)ncnc54)[C@H](OP(=O)(O)O)[C@@H]3O)[C@@H](O)[C@H]2O)C=CC1 [NADPH]
- Km ([1]; in the presence of 0.5 mM octadecanoyl-CoA, read-out: Km value for NADPH for PCC7942_orf1594): 400 ± 80 µM

B1: Synechocystis sp. PCC6803 sll0209: Synechocystis sp. PCC6803 acyl-ACP reductase (SEQ ID NO: 68) (protein, listed as Synechocystis sp.)
chain: MFGLIGHLTSLEHAQAVAEDLGYPEYANQGLDFWCSAPPQVVDNFQVKSVTGQVIEGKYVESCFLPEMLTQRRIKAAIRKILNAMALAQKVGLDITALGGFSSIVFEEFNLKQNNQVRNVELDFQRFTTGNTHTAYVICRQVESGAKQLGIDLSQATVAVCGATGDIGSAVCRWLDSKHQVKELLLIARNRQRLENLQEELGRGKIMDLETALPQADIIVWVASMPKGVEIAGEMLKKPCLIVDGGYPKNLDTRVKADGVHILKGGIVEHSLDITWEIMKIVEMDIPSRQMFACFAEAILLEFEGWRTNFSWGRNQISVNKMEAIGEASVKHGFCPLVAL
- use of acyl-CoA as substrate to produce fatty aldehydes ([2]; reductase coexpressed with a fatty aldehyde decarbonylase): able to use acyl-CoA as a substrate
- production of fatty aldehydes or fatty alcohols ([2]; reductase expressed alone in acyl-CoA-producing strain): did not produce any fatty aldehydes or fatty alcohols

B2: Synechocystis sp. PCC6803 sll0208: Synechocystis sp. PCC6803 putative fatty aldehyde decarbonylase (SEQ ID NO: 3) (protein, listed as Synechocystis sp.)
chain: MPELAVRTEFDYSSEIYKDAYSRINAIVIEGEQEAYSNYLQMAELLPEDKEELTRLAKMENRHKKGFQACGNNLQVNPDMPYAQEFFAGLHGNFQHAFSEGKVVTCLLIQALIIEAFAIAAYNIYIPVADDFARKITEGVVKDEYTHLNYGEEWLKANFATAKEELEQANKENLPLVWKMLNQVQGDAKVLGMEKEALVEDFMISYGEALSNIGFSTREIMRMSSYGLAGV
- conversion of fatty aldehydes into alkanes/alkenes [2]: octadecenal was converted into heptadecene

B3: AM1—4041: Acaryochloris marina MBIC11017 putative decarbonylase (SEQ ID NO: 9) (protein, listed as Acaryochloris marina)
chain: MPQTQAISEIDFYSDTYKDAYSRIDGIVIEGEQEAHENYIRLGEMLPEHQDDFIRLSKMEARHKKGFEACGRNLKVTCDLDFARRFFSDLHKNFQDAAAEDKVPTCLVIQSLIIECFAIAAYNIYIPVADDFARKITESVVKDEYQHLNYGEEWLKAHFDDVKAEIQEANRKNLPIVWRMLNEVDKDAAVLGMEKEALVEDFMIQYGEALSNIGFSTGEIMRMSAYGLVAA
- conversion of fatty aldehydes into alkanes/alkenes [2]: converted into pentadecene, pentadecane and heptadecene
- conversion of fatty aldehydes provided by MSMEG—5739 to alkanes [3]: converted fatty aldehydes provided by MSMEG—5739 to the corresponding alkanes
- fatty aldehyde decarbonylase activity (alkane/alkene production) [4]: active fatty aldehyde decarbonylase

B4: ATCC51142 cce—1430: Cyanothece sp. ATCC51142 putative aldehyde-generating enzyme, Acyl-ACP reductase (SEQ ID NO: 70) (protein, listed as Cyanothece sp.)
chain: MFGLIGHLTSLEHAHSVADAFGYGPYATQGLDLWCSAPPQFVEHFHVTSITGQTIEGKYIESAFLPEMLIKRRIKAAIRKILNAMAFAQKNNLNITALGGFSSIIFEEFNLKENRQVRNVSLEFDRFTTGNTHTAYIICRQVEQASAKLGIDLSQATVAICGATGDIGSAVCRWLDRKTDTQELFLIARNKERLQRLQDELGRGKIMGLEEALPEADIIVWVASMPKGVEINAETLKKPCLIIDGGYPKNLDTKIKHPDVHILKGGIVEHSLDIDWKIMETVNMDVPSRQMFACFAEAILLEFEQWHTNFSWGRNQITVTKMEQIGEASVKHGLQPLLSW
- production of fatty aldehydes and fatty alcohols [5]: generates aldehydes in vivo

B5: octadecenoyl-ACP (conjugate, UniProt Q31QV1 1-80, looked up)
Acyl carrier protein: MSQEDIFSKVKDIVAEQLSVDVAEVKPESSFQNDLGADSLDTVELVMALEEAFDIEIPDEAAEGIATVQDAVDFIASKAA
modifications: octadecenoyl acyl thioester
notes: acyl-ACP (acyl carrier protein) substrate of PCC7942_orf1594 reductase
- Km [1, 6]: 7.8 ± 2 µM
